One may read the koff as the rate constant with which the complex falls apart. The low end stands for a long-lived complex, the high end for a short-lived complex.

For the test, the target named is SARS-CoV-2 prototype (PT) S NTD, human Fc-tagged (SARS-CoV-2). Briefly: SPR. For orientation: SPR reads the build-up and loss of mass on a sensor chip optically.

B1: nanobody N235, His-tagged (VHH)
VHH: QVQLQESGGGLVQPGGSLRLSCAASGLIISRYDMSWYRQAPGKERELVATTPIPAARPQYADSVKGRFTISRDNAKNTVSLQMNSLKPEDTAVYYCNLGPESQDHNYNYWGQGTQVTVSS
B1 returned a koff of 0.00024 s⁻¹.

Source of the values: paper PMC11091055 (2024).
